Consider six molecules from patent US20180155450A1 (Sanofi, published 2018).

Like-named read-outs stand apart in the source and are kept apart here.

The term Kd denotes the constant that tells how readily two partners part at equilibrium. One may read the koff as the first-order rate constant of dissociation. The term kon denotes the second-order rate constant of association.

For assay [1], the target named is T1, recombinant human IL4 (human, UniProt P05112 25-153).
T1 construct: bought
T1 sequence (looked up): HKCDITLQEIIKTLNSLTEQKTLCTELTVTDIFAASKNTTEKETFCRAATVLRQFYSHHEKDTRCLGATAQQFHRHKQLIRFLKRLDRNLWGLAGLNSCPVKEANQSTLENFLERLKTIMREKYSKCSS
Briefly: SPR (Biacore 3000), CODV-Fab captured with anti-human Fab capture kit, antigen as analyte. A general note: In SPR one partner is held on a chip, and binding of the other changes the refractive index at the surface.
Experimental: (§1) Kinetic binding analysis by Biacore was performed as follows. Surface plasmon resonance technology on a Biacore 3000 (GE Healthcare) was used for detailed kinetic characterization of purified antibodies. […] Chip surfaces were regenerated with 10 mM glycine pH 2.5. Kinetic parameters were analyzed and calculated in the BIAevaluation program package v4.1 using a flow cell without captured antibody as a reference.

Assay [2] concerns the target T1, recombinant human IL4. Nature of the assay: SPR (Biacore 3000), antibody captured, antigen as analyte.
Experimental: as §1
The target in assay [3] is T1, recombinant human IL4. Nature of the assay: cell-based or functional assay.
The target of assay [4] is T1, recombinant human IL4. Nature of the assay: cell-based or functional assay. The source holds these as a separate data set.
The target in assay [5] is T1, recombinant human IL4. Nature of the assay: SPR (Biacore 3000), antibody captured, antigen as analyte. The source holds these as a separate data set.
Experimental: as §1
Assay [6] deals with T2, recombinant human IL4 (human, UniProt P05112 25-153).
T2 construct: also called Antigen1
T2 sequence (looked up): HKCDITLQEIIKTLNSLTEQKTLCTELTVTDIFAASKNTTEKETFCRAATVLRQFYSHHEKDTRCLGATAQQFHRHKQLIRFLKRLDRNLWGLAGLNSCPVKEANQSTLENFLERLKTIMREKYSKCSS
Nature of the assay: SPR, BIACORE 3000; antibody captured by anti-human Fc, antigen 0-25 nM as analyte.
Experimental: Kinetic characterization of purified antibodies was performed using surface plasmon resonance technology on a BIACORE 3000 (GE Healthcare). […] Chip surfaces were regenerated with 10 mM glycine, pH 2.5. Kinetic parameters were analyzed and calculated in the BIAevaluation program package v4.1 using a flow cell without captured antibody as reference.

B1: CODV-Fab Batch ID 421 (IL4 × IL13; L1=7, L2=5, L3=1, L4=2) (bispecific antibody)
heavy: QVQLQQSGPELVKPGASVKISCKASGYSFTSYWIHWIKQRPGQGLEWIGMIDPSDGETRLNQRFQGRATLTVDESTSTAYMQLRSPTSEDSAVYYCTRLKEYGNYDSFYFDVWGAGTLVTVSSGEVQLKESGPGLVAPGGSLSITCTVSGFSLTDSSINWVRQPPGKGLEWLGMIWGDGRIDYADALKSRLSISKDSSKSQVFLEMTSLRTDDTATYYCARDGYFPYAMDFWGQGTSVTVSSGGASTKGPSVFPLAPSSKSTSGGTAALGCLVKDYFPEPVTVSWNSGALTSGVHTFPAVLQSSGLYSLSSVVTVPSSSLGTQTYICNVNHKPSNTKVDKKVEPKSCDKTHTHHHHHH
light: DIVLTQSPASLAVSLGQRATISCRASESVDSYGQSYMHWYQQKAGQPPKLLIYLASNLESGVPARFSGSGSRTDFTLTIDPVQAEDAATYYCQQNAEDSRTFGGGTKLEIKGGGGGGGDIQMTQSPASLSVSVGDTITLTCHASQNIDVWLSWFQQKPGNIPKLLIYKASNLHTGVPSRFSGSGSGTGFTLTISSLQPEDIATYYCQQAHSYPFTFGGGTKLEIKGGGGGRTVAAPSVFIFPPSDEQLKSGTASVVCLLNNFYPREAKVQWKVDNALQSGNSQESVTEQDSKDSTYSLSSTLTLSKADYEKHKVYACEVTHQGLSSPVTKSFNRGEC
For B1, in the assay with recombinant human IL4 [1], the dissociation constant (Kd) stood at 0.012 nM.

B2: CODV-Ig Batch ID 603 (Batch ID 204 with P446G447 to G446E447C448 in IGHG1) (bispecific antibody)
heavy: QVQLQQSGPELVKPGASVKISCKASGYSFTSYWIHWIKQRPGQGLEWIGMIDPSDGETRLNQRFQGRATLTVDESTSTAYMQLRSPTSEDSAVYYCTRLKEYGNYDSFYFDVWGAGTLVTVSSGEVQLKESGPGLVAPGGSLSITCTVSGFSLTDSSINWVRQPPGKGLEWLGMIWGDGRIDYADALKSRLSISKDSSKSQVFLEMTSLRTDDTATYYCARDGYFPYAMDFWGQGTSVTVSSGGASTKGPSVFPLAPSSKSTSGGTAALGCLVKDYFPEPVTVSWNSGALTSGVHTFPAVLQSSGLYSLSSVVTVPSSSLGTQTYICNVNHKPSNTKVDKKVEPKSCDKTHTCPPCPAPELLGGPSVFLFPPKPKDTLMISRTPEVTCVVVDVSHEDPEVKFNWYVDGVEVHNAKTKPREEQYNSTYRVVSVLTVLHQDWLNGKEYKCKVSNKALPAPIEKTISKAKGQPREPQVYTLPPSRDELTKNQVSLTCLVKGFYPSDIAVEWESNGQPENNYKTTPPVLDSDGSFFLYSKLTVDKSRWQQGNVFSCSVMHEALHNHYTQKSLSLSGEC
light: DIVLTQSPASLAVSLGQRATISCRASESVDSYGQSYMHWYQQKAGQPPKLLIYLASNLESGVPARFSGSGSRTDFTLTIDPVQAEDAATYYCQQNAEDSRTFGGGTKLEIKGGGGGGGDIQMTQSPASLSVSVGDTITLTCHASQNIDVWLSWFQQKPGNIPKLLIYKASNLHTGVPSRFSGSGSGTGFTLTISSLQPEDIATYYCQQAHSYPFTFGGGTKLEIKGGGGGRTVAAPSVFIFPPSDEQLKSGTASVVCLLNNFYPREAKVQWKVDNALQSGNSQESVTEQDSKDSTYSLSSTLTLSKADYEKHKVYACEVTHQGLSSPVTKSFNRGEC
notes: C-terminal change P446G447 to G446E447C448
On to B2, for which the Kd with recombinant human IL4 [2] amounted to 4 pM. Besides, the “IC50 Cellular Assay IL4 [nM] (HEK-Blue IL-4/IL-13 reporter cells, SEAP)” value (from here on “IC50 Cellular Assay IL4 [nM]”) in the assay with recombinant human IL4 [3] worked out at 0.036 nM.

B3: CODV-Ig Batch ID 804 (Batch ID 204 with LC G116C, HC Q43C) (bispecific antibody)
heavy: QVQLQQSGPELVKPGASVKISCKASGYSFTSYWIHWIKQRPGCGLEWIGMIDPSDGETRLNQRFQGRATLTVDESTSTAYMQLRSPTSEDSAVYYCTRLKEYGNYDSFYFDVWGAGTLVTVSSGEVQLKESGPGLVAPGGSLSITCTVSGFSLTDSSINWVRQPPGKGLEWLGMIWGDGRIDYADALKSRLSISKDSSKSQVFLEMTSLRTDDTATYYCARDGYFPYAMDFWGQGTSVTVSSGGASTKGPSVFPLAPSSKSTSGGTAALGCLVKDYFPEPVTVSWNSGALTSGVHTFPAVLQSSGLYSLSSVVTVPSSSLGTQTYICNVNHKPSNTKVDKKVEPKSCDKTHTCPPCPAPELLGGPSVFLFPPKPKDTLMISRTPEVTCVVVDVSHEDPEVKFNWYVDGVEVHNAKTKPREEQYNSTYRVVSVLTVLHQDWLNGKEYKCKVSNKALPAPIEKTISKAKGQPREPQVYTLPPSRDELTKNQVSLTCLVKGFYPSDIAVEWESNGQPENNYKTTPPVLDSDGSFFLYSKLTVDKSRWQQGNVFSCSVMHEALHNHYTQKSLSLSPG
light: DIVLTQSPASLAVSLGQRATISCRASESVDSYGQSYMHWYQQKAGQPPKLLIYLASNLESGVPARFSGSGSRTDFTLTIDPVQAEDAATYYCQQNAEDSRTFGGGTKLEIKGGGGCGGDIQMTQSPASLSVSVGDTITLTCHASQNIDVWLSWFQQKPGNIPKLLIYKASNLHTGVPSRFSGSGSGTGFTLTISSLQPEDIATYYCQQAHSYPFTFGGGTKLEIKGGGGGRTVAAPSVFIFPPSDEQLKSGTASVVCLLNNFYPREAKVQWKVDNALQSGNSQESVTEQDSKDSTYSLSSTLTLSKADYEKHKVYACEVTHQGLSSPVTKSFNRGEC
modifications: Engineered cysteine pair LC C116 (in L1) and HC C43, intended inter-chain disulfide.
notes: The mutation numbers are read as counts along the whole chain: G116C lies in L1 as printed; Q43C lies in the N-terminal anti-IL4 VH
Consider B3, for which, in the assay with recombinant human IL4 [4], the “IC50 Cellular Assay IL4 [nM]” value was determined as 0.04 nM. For the same molecule, the Kd in the assay with recombinant human IL4 [5] was found to be 2 pM.

B4: CODV-Ig Batch ID 803 (Batch ID 204 with LC G115C, HC Q43C) (bispecific antibody)
heavy: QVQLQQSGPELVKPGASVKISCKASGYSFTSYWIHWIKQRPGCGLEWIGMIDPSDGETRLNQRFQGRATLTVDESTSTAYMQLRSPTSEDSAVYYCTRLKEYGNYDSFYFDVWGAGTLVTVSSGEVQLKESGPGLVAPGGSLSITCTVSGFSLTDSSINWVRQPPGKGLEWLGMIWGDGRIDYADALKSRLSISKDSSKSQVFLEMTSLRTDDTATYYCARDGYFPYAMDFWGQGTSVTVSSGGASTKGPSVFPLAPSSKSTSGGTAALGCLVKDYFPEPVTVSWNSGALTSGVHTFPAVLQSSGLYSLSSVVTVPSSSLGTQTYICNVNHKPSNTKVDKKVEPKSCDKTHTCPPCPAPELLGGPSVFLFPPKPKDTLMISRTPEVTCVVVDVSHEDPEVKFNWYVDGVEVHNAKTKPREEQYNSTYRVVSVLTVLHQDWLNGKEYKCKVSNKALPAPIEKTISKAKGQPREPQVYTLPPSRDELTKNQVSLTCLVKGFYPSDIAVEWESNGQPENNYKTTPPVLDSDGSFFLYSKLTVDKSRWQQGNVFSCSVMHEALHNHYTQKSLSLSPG
light: DIVLTQSPASLAVSLGQRATISCRASESVDSYGQSYMHWYQQKAGQPPKLLIYLASNLESGVPARFSGSGSRTDFTLTIDPVQAEDAATYYCQQNAEDSRTFGGGTKLEIKGGGCGGGDIQMTQSPASLSVSVGDTITLTCHASQNIDVWLSWFQQKPGNIPKLLIYKASNLHTGVPSRFSGSGSGTGFTLTISSLQPEDIATYYCQQAHSYPFTFGGGTKLEIKGGGGGRTVAAPSVFIFPPSDEQLKSGTASVVCLLNNFYPREAKVQWKVDNALQSGNSQESVTEQDSKDSTYSLSSTLTLSKADYEKHKVYACEVTHQGLSSPVTKSFNRGEC
modifications: Engineered cysteine pair LC C115 (in L1) and HC C43, intended inter-chain disulfide.
notes: The mutation numbers are read as counts along the whole chain: G115C lies in L1 as printed; Q43C lies in the N-terminal anti-IL4 VH
Consider B4, for which the “IC50 Cellular Assay IL4 [nM]” value with recombinant human IL4 [4] came out at 0.036 nM. Moreover, the Kd with recombinant human IL4 [5] was 6 pM.

B5: CODV-Ig Batch ID 805 (Batch ID 204 with LC G117C, HC Q43C) (bispecific antibody)
heavy: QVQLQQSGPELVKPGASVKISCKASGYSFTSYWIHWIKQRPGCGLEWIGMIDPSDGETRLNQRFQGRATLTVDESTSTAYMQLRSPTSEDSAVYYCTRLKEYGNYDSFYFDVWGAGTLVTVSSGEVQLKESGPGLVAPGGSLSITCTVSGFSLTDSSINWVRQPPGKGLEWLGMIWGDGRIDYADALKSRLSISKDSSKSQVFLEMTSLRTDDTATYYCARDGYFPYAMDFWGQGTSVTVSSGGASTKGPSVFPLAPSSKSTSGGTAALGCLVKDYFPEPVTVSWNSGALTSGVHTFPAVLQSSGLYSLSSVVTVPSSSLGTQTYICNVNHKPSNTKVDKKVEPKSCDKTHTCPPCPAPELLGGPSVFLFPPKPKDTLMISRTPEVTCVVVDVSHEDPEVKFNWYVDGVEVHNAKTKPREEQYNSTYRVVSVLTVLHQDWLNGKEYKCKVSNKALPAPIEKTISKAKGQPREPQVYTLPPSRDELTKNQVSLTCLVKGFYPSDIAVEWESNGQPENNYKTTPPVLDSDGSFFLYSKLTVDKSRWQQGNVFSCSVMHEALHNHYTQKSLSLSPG
light: DIVLTQSPASLAVSLGQRATISCRASESVDSYGQSYMHWYQQKAGQPPKLLIYLASNLESGVPARFSGSGSRTDFTLTIDPVQAEDAATYYCQQNAEDSRTFGGGTKLEIKGGGGGCGDIQMTQSPASLSVSVGDTITLTCHASQNIDVWLSWFQQKPGNIPKLLIYKASNLHTGVPSRFSGSGSGTGFTLTISSLQPEDIATYYCQQAHSYPFTFGGGTKLEIKGGGGGRTVAAPSVFIFPPSDEQLKSGTASVVCLLNNFYPREAKVQWKVDNALQSGNSQESVTEQDSKDSTYSLSSTLTLSKADYEKHKVYACEVTHQGLSSPVTKSFNRGEC
notes: The mutation numbers are read as counts along the whole chain: G117C lies in L1 as printed; Q43C lies in the N-terminal anti-IL4 VH
On to B5, for which, in the assay with recombinant human IL4 [4], the “IC50 Cellular Assay IL4 [nM]” value stood at 0.047 nM. Also, the Kd in the assay with recombinant human IL4 [5] came to 7 pM.

B6: parental anti-IL4 mAb (antibody, V domains shown)
VH: QVQLQQSGPELVKPGASVKISCKASGYSFTSYWIHWIKQRPGQGLEWIGMIDPSDGETRLNQRFQGRATLTVDESTSTAYMQLRSPTSEDSAVYYCTRLKEYGNYDSFYFDVWGAGTLVTVSS
VL: DIQMTQSPASLSVSVGDTITLTCHASQNIDVWLSWFQQKPGNIPKLLIYKASNLHTGVPSRFSGSGSGTGFTLTISSLQPEDIATYYCQQAHSYPFTFGGGTKLEIKR
notes: also called parental humanized anti-IL4; 8D4
Take B6: in the assay with recombinant human IL4 [6], the Kd is 7.83 pM, the koff amounted to 0.000195 s⁻¹ and the kon was determined as 2.49e+07 M⁻¹ s⁻¹.
